Measurements from patent US20160215061A1 (Merck Sharp & Dohme, published 2016).

T1: recombinant human FcγRIIB expressed in CHO cells (human, UniProt P31994 43-217, limits assumed)
T1 construct: Soluble analyte injected in SPR; also called human FcgRIIB; rhFcgRIIB (CHO)
T1 sequence (looked up): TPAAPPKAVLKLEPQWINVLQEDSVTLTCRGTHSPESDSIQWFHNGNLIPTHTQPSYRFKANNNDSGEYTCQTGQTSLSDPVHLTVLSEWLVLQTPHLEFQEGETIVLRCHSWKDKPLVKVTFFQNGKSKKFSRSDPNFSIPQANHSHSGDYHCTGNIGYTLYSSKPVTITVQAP

T2: recombinant mouse FcγRIIB expressed in NS0 cells (mouse, UniProt P08101 40-207, limits assumed)
T2 construct: Bought from R&D Systems; soluble analyte injected in SPR; also called rmFcgRIIB (NSO); CD32-B
T2 sequence (looked up): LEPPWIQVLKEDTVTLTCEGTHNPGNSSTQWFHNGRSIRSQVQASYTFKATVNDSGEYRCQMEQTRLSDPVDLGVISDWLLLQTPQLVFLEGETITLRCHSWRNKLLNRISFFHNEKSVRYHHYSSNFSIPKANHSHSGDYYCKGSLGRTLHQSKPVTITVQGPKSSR


Tests used:
[1] = biological target: T1, recombinant human FcγRIIB expressed in …; experiment: SPR (Biacore); capture sample on chip, rhFcgRIIB (CHO) injected; reference Herceptin
Protocol: (§1) Purified IgGs were analyzed by SDS-PAGE for expression and assayed for binding to human or mouse FcγRIIB. […] The CMS chip (GE Healthcare, Wauwatusa, Wis.) was immobilized on all flow cells with mouse anti-human IgG (Fc specific) (obtained from GE Healthcare, Wauwatusa, Wis.) according to the Biacore Human Antibody Capture Kit to ˜7000 RU. Purified full-length IgG1 variants containing mutations in Fc region (described in Example 1) were captured on the chip through immobilized mouse anti-human IgG (obtained from GE Healthcare, Wauwatusa, Wis.) followed by injection of human or mouse FcγRIIB. Human FcγRIIB was expressed in Chinese Hamster Ovary cells (Merck, Whithouse Station, N.J.) and mouse FcγRIIB was expressed in NS0 murine myeloma (R&D Systems, Minneapolis, Minn.)). Each flowcell was regenerated between each analyte injection with 3M MgCl for 40 s at 10 μl/min. Data was analyzed with Biacore T100 Evaluation Software using the 1/1 binding model for KD values, where reported. Amino acid compositions of novel variants were identified by DNA sequencing. Clones were tabulated based on response units (RU's) registered following receptor binding.
(§2) Resulting clones were fermented in 1 L bioreactor vessels to produce each of the described variants. Culture supernatants were passed over protein A coated beads to capture secreted Fc fragments. Purified Fc fragments were eluted at pH 3.0 into tubes containing 1M Tris (pH 8.0). Purified Fc fragments were analyzed by surface plasmon resonance (SPR) on Biacore for binding to human and mouse FcγRIIB as described in Example 2.

[2] = biological target: T2, recombinant mouse FcγRIIB expressed in …; experiment: SPR (Biacore); capture sample on chip, rmFcgRIIB (NSO) injected; reference Herceptin
Protocol: as §1, §2

[3] = biological target: T1, recombinant human FcγRIIB expressed in …; experiment: SPR (Biacore), 1/1 binding model; reference Herceptin

Row | Binder | Fold Increase in RU vs WT IgG1 [1] [fold] | Fold Increase in RU vs WT IgG1 [2] [fold] | Fold Improvement in KD vs WT IgG1 rhFcgRIIb [3] [fold]
1 | 183-D4/F241A Fc (SEQ ID NO13) (other, Human IgG1 Fc fragment with F241A, K317E, K326E, A339T, Q342R, K414R (EU)) AEPKSCDKTHTCPPCPAPELLGGPSVALFPPKPKDTLMISRTPEVTCVVVDVSHEDPEVKFNWYVDGVEVHNAKTKPREEQYNSTYRVVSVLTVLHQDWLNGEEYKCKVSNEALPAPIEKTISKTKGRPREPQVYTLPPSRDELTKNQVSLTCLVKGFYPSDIAVEWESNGQPENNYKTTPPVLDSDGSFFLYSKLTVDRSRWQQGNVFSCSVMHEALHNHYTQKSLSLSPGK | 4.7 | 5 | 
2 | 183-D4/F241A/L328F Fc (SEQ ID NO12) (other, Human IgG1 Fc fragment with F241A, K317E, K326E, L328F, A339T, Q342R, K414R (EU)) AEPKSCDKTHTCPPCPAPELLGGPSVALFPPKPKDTLMISRTPEVTCVVVDVSHEDPEVKFNWYVDGVEVHNAKTKPREEQYNSTYRVVSVLTVLHQDWLNGEEYKCKVSNEAFPAPIEKTISKTKGRPREPQVYTLPPSRDELTKNQVSLTCLVKGFYPSDIAVEWESNGQPENNYKTTPPVLDSDGSFFLYSKLTVDRSRWQQGNVFSCSVMHEALHNHYTQKSLSLSPGK | 1.2 | 1.3 | 
3 | K317E/K326E/K414R Fc (SEQ ID NO11) (other, Human IgG1 Fc fragment, made in glycoengineered Pichia pastoris) AEPKSCDKTHTCPPCPAPELLGGPSVFLFPPKPKDTLMISRTPEVTCVVVDVSHEDPEVKFNWYVDGVEVHNAKTKPREEQYNSTYRVVSVLTVLHQDWLNGEEYKCKVSNEALPAPIEKTISKAKGQPREPQVYTLPPSRDELTKNQVSLTCLVKGFYPSDIAVEWESNGQPENNYKTTPPVLDSDGSFFLYSKLTVDRSRWQQGNVFSCSVMHEALHNHYTQKSLSLSPGK |  | 5.2 | 
4 | F243A/V264A/S267E/L328F Fc (SEQ ID NO8) (other, Human IgG1 Fc fragment with F243A, V264A, S267E, L328F (EU)) AEPKSCDKTHTCPPCPAPELLGGPSVFLAPPKPKDTLMISRTPEVTCVVADVEHEDPEVKFNWYVDGVEVHNAKTKPREEQYNSTYRVVSVLTVLHQDWLNGKEYKCKVSNKAFPAPIEKTISKAKGQPREPQVYTLPPSREEMTKNQVSLTCLVKGFYPSDIAVEWESNGQPENNYKTTPPVLDSDGSFFLYSKLTVDKSRWQQGNVFSCSVMHEALHNHYTQKSLSLSPG | 7 | 2.4 | 11
